Measurements from the supplement of paper PMC10567573.

B1: PLAGL1 (parent)
chain: EKPPSGTKEKKHQCDHCERCFYTR

Variants of: B1
Assay: protein stability index of a GFP-peptide fusion (GPS, HEK-293T) (PSI 1-6); higher = more stable
Conditions: c terminus: a fixed tail appended
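Also: lentivirally expressed fusions sorted by FACS into six bins by GFP to DsRed ratio, PSI derived from sequencing read proportions per bin multiplied by bin number.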

In order of rising protein stability index:
1. EKPPSGTKEKKHQCRHCERCFYTR [D15R]  2.2
2. EKPPSGTKEKKHQCPHCERCFYTR [D15P]  2.25
3. EKPPSGTKEKKHQCDHCSRCFYTR [E18S]  2.42
4. EKPPSGTKEKKHQCDHCQRCFYTR [E18Q]  2.45
5. EKPPSGTKEKKHQCDCCERCFYTR [H16C]  2.52
6. EKPPSGTKEKKHQCIHCERCFYTR [D15I]  2.55
7. EKPPSGTKEKKHQCDHCKRCFYTR [E18K]  2.58
8. EKPPSGTKEKKHQCDYCERCFYTR [H16Y]  2.59
9. EKPPSGTKEKKHQCDHCMRCFYTR [E18M]  2.6
10. EKPPSGTKEKKHQCDHCFRCFYTR [E18F]  2.61
11. EKPPSGTKEKKHQCDHCIRCFYTR [E18I]  2.63
12. EKPPSGTKEKKHQCMHCERCFYTR [D15M]  2.63
13. EKPPSGTKEKKHQCVHCERCFYTR [D15V]  2.68
14. EKPPSGTKEKKHQCQHCERCFYTR [D15Q]  2.7
15. EKPPSGTKEKKHQCDICERCFYTR [H16I]  2.76
16. EKPPSGTKEKKHQCDHCRRCFYTR [E18R]  2.79
17. EKPPSGTKEKKHQCFHCERCFYTR [D15F]  2.79
18. EKPPSGTKEKKHQCDHCLRCFYTR [E18L]  2.87
19. EKPPSGTKEKKHQCDWCERCFYTR [H16W]  2.9
20. EKPPSGTKEKKHQCHHCERCFYTR [D15H]  2.9
21. EKPPSGTKEKKHQCLHCERCFYTR [D15L]  2.91
22. EKPPSGTKEKKHQCDHCYRCFYTR [E18Y]  2.92
23. EKPPSGTKEKKHQCDHCNRCFYTR [E18N]  2.94
24. EKPPSGTKEKKHQCYHCERCFYTR [D15Y]  2.97
25. EKPPSGTKEKKHQCDVCERCFYTR [H16V]  3.08
26. EKPPSGTKEKKHQCDHCDRCFYTR [E18D]  3.12
27. EKPPSGTKEKKHQCDHWERCFYTR [C17W]  3.13
28. EKPPSGTKEKKHQCDHYERCFYTR [C17Y]  3.15
29. EKPPSGTKEKKHQCDHRERCFYTR [C17R]  3.15
30. EKPPSGTKEKKHQCWHCERCFYTR [D15W]  3.15
31. EKPPSGTKEKKHQCDHCARCFYTR [E18A]  3.18
32. EKPPSGTKEKKHQCEHCERCFYTR [D15E]  3.18
33. EKPPSGTKEKKHQCNHCERCFYTR [D15N]  3.23
34. EKPPSGTKEKKHQCDHCEGCFYTR [R19G]  3.24
35. EKPPSGTKEKKHQCDHCEWCFYTR [R19W]  3.29
36. EKPPSGTKEKKHQCSHCERCFYTR [D15S]  3.29
37. EKPPSGTKEKKHQCDHCEPCFYTR [R19P]  3.3
38. EKPPSGTKEKKHQCDHCECCFYTR [R19C]  3.3
39. EKPPSGTKEKKHQCDHCHRCFYTR [E18H]  3.33
40. EKPPSGTKEKKHQCKHCERCFYTR [D15K]  3.33
41. EKPPSGTKEKKHQCTHCERCFYTR [D15T]  3.37
42. EKPPSGTKEKKHQCDHCEVCFYTR [R19V]  3.39
43. EKPPSGTKEKKHQCDHFERCFYTR [C17F]  3.4
44. EKPPSGTKEKKHQCDHCWRCFYTR [E18W]  3.41
45. EKPPSGTKEKKHQCDHGERCFYTR [C17G]  3.43
46. EKPPSGTKEKKHQCDHCELCFYTR [R19L]  3.45
47. EKPPSGTKEKKHQCDHTERCFYTR [C17T]  3.48
48. EKPPSGTKEKKHQCDRCERCFYTR [H16R]  3.49
49. EKPPSGTKEKKHQCDHIERCFYTR [C17I]  3.49
50. EKPPSGTKEKKHQCDFCERCFYTR [H16F]  3.5
51. EKPPSGTKEKKHQCDLCERCFYTR [H16L]  3.51
52. EKPPSGTKEKKHQCDHCETCFYTR [R19T]  3.52
53. EKPPSGTKEKKHQCDHCEICFYTR [R19I]  3.52
54. EKPPSGTKEWKHQCDHCERCFYTR [K10W]  3.55
55. EKPPSGTKEKKHQCDHCTRCFYTR [E18T]  3.62
56. EKPPSGTKEKKHQCDHMERCFYTR [C17M]  3.63
57. EKPPSGTKEKKHQCDHSERCFYTR [C17S]  3.63
58. EKPPSGTKEKKHQCDMCERCFYTR [H16M]  3.66
59. EKPPSGTKEKKHQCDTCERCFYTR [H16T]  3.66
60. EKPPSGTKEKKHQCDHHERCFYTR [C17H]  3.67
61. EKPPSGTKEKKHQCDHCEFCFYTR [R19F]  3.69
62. EKPPSGTKEKKHQCDHEERCFYTR [C17E]  3.69
63. EKPPSGTKEKKHQCDHAERCFYTR [C17A]  3.71
64. EKPPSGTKEKKHQCAHCERCFYTR [D15A]  3.75
65. EKPPSGTKEKKHQCDHNERCFYTR [C17N]  3.76
66. EKPPSGTKEKKHQCDHCEYCFYTR [R19Y]  3.79
67. EKPPSGTKEYKHQCDHCERCFYTR [K10Y]  3.81
68. EKPPSGTKEKKHQCDQCERCFYTR [H16Q]  3.82
69. EKPPSGTKEKKHQCDHCEMCFYTR [R19M]  3.83
70. EKPPSGTKEKKHQCDHCESCFYTR [R19S]  3.9
71. EKPPSGTKEKKHQCDHQERCFYTR [C17Q]  3.9
72. EKPPSGTKEKKHQCDPCERCFYTR [H16P]  3.94
73. EKPPSGTKEKKHQCDHDERCFYTR [C17D]  3.97
74. EKPPSGTKEKKHQCDHCEKCFYTR [R19K]  4
75. EKPPSGTKEKKHQCDHLERCFYTR [C17L]  4
76. EKPPSGTKEKKHQCDDCERCFYTR [H16D]  4.02
77. EKPPSGTKEKKHQCDKCERCFYTR [H16K]  4.02
78. EKPPSGTKEKKHQCDHVERCFYTR [C17V]  4.05
79. EKPPSGTKEKKHQCDHKERCFYTR [C17K]  4.07
80. EKPPSGTKEKKHQCDSCERCFYTR [H16S]  4.13
81. EKPPSGTKEKKHQCDACERCFYTR [H16A]  4.15
82. EKPPSGTKEKKHQCDECERCFYTR [H16E]  4.17
83. EKPPSGTKEKKHQCDHCEHCFYTR [R19H]  4.21
84. EKPPSGTKEKKHQCDHCEACFYTR [R19A]  4.31
85. EKPPSGTKEKKHQCDHPERCFYTR [C17P]  4.33
86. EKPPSGTKEKKHQCDHCEQCFYTR [R19Q]  4.34
87. EKPPSGTKEKKHQCDHCENCFYTR [R19N]  4.36
88. EKPPSGTKEKKHQCGHCERCFYTR [D15G]  4.38
89. EKPPSGTKEKKHQCDHCEECFYTR [R19E]  4.54
90. EKPPSGTKEKKHQCDHCVRCFYTR [E18V]  4.66
91. EKPPSGTKEKKHQCDGCERCFYTR [H16G]  4.67
92. EKPPSGTKEKKHQCDHCPRCFYTR [E18P]  4.7
93. EKPPSGTKEKKHQCDNCERCFYTR [H16N]  4.72
94. EKPPSGTKEKKHQCDHCEDCFYTR [R19D]  4.91
